Substitutions are numbered along the chain they refer to. In names and notes the source's numbering stands.

By Kd is commonly meant the equilibrium constant for the complex coming apart. Higher therefore signals lower affinity. What is called koff is the rate constant with which the complex falls apart. A high value points to fast dissociation. For orientation: kon means the second-order rate constant of association. Read a low kon as slow association. One may read the stoichiometry N as the number of molecules, sites or subunits per partner or assembly.

For assay [1], the target named is T1, His-tagged human VEGFR-3 (residues 30-326) (human, UniProt P35916 30-326).
T1 construct: Vascular endothelial growth factor receptor 3 (VEGFR-3), human, residues 30-326 (extracellular Ig domains 1-3); The primers fit P30 to I326; the reverse primer has no stop codon, so vector residues and a second His tag may follow at the C-terminus (my surmise); also called Wild-type VEGFR-3; extracellular domains 1, 2 and 3
T1 sequence (looked up): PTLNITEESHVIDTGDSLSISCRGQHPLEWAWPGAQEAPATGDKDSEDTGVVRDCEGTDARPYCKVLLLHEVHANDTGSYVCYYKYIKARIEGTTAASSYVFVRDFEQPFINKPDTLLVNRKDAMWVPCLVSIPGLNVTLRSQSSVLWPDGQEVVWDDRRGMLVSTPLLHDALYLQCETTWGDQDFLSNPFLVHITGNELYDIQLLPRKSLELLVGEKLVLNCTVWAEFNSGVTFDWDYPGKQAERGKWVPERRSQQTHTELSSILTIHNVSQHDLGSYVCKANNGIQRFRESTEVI
As to the kind of experiment: SPR; VEGFR-3 immobilised on a CM5 chip by amine coupling (2,300 response units); Biacore T100, 25°C; running buffer 50 mM HEPES (pH 7.7), 50 mM NaCl or 50 mM Tris-HCl (7.82), 50 mM NaCl; VEGF-D or mutant injected at 0.125, 0.25, 0.5, 1 uM, 10 ul/min. To be noted: both partners purified. (In SPR one partner is held on a chip, and binding of the other changes the refractive index at the surface.)

Assay [2] has as its target T2, His-tagged VEGFR-3 (residues 30-326) (human, UniProt P35916 30-326).
T2 construct: human VEGFR-3, residues 30-326 (extracellular domains 1, 2 and 3); Cloned in pET-28a; In the functional rows it stands for the VEGFR-3 of MDA-MB-231 cells; also called His-VEGFR-3; extracellular domains 1, 2, and 3; source: for SEC co-lysed with His-tagged VEGF-D cells and purified together on Ni-NTA
T2 sequence (looked up): T1 sequence (looked up)
As to the kind of experiment: pull-down; 50 ug GST-tagged VEGF-D or mutant on Glutathione Sepharose 4 Fast Flow beads, 50 ug His-VEGFR-3 in 1X PBS, on ice overnight; eluted with 30 mM glutathione; Western blot with anti-His and anti-GST. To be noted: both partners purified. On the technique in general: A western blot detects proteins with antibodies after separation by electrophoresis.

Assay [3] concerns the target T2, His-tagged VEGFR-3 (residues 30-326). As to the kind of experiment: cell-based or functional assay.
For assay [4] the target is unchanged. As to the kind of experiment: SPR; VEGFR-3 immobilised on a CM5 chip by amine coupling (2,300 response units); VEGF-D or mutant injected at 0.125, 0.25, 0.5 and 1 uM, 10 ul/min; Biacore T100, 25 °C; 50 mM HEPES (pH 7.7), 50 mM NaCl or 50 mM Tris-HCl (7.82), 50 mM NaCl. To be noted: both partners purified.
Assay [5] shares this target. As to the kind of experiment: SEC; His-tagged VEGF-D and His-tagged VEGFR-3 cells co-lysed, purified together on Ni-NTA, incubated 24 h at 4 °C; Superdex 200 10/300 GL, 50 mM Tris-HCl (pH 7.82), 200 mM NaCl, 0.1% glycerol, sample 17 mg/ml, 0.4 ml/min; fractions by SDS-PAGE. To be noted: partners not purified. On the technique in general: SEC sorts molecules by how far they enter the pores of the column.

B1: His-tagged wild-type human VEGF-D (residues 89-205) (ligand, UniProt O43915 89-205, looked up)
chain: FAATFYDIETLKVIDEEWQRTQCSPRETCVEVASELGKSTNTFFKPPCVNVFRCGGCCNEESLICMNTSTSYISKQLFEISVPLTSVPELVPVKVANHTGCKCLPTAPRHPYSIIRR
notes: Vascular endothelial growth factor D (VEGF-D), human, residues 89-205 (major mature form); Cloned in pET-28a; also called Wild-type VEGF-D; major form
In assay [1], B1 yielded a dissociation constant Kd of 268 nM, an off-rate constant (koff) of 0.00115 s⁻¹ and a kon of 4310 M⁻¹ s⁻¹.

B2: GST-tagged VEGF-D (residues 89-205) E105A (ligand, human, UniProt O43915 89-205, looked up)
chain: B1 chain with E17A
notes: human VEGF-D, residues 89-205, E105A; Cloned in pGEX-4T-1
B2: the binding result in assay [2] is listed as “binds”.

B3: His-tagged VEGF-D (residues 89-205), wild type (ligand, human, UniProt O43915 89-205, looked up)
chain: B1 chain
notes: human VEGF-D, residues 89-205 (major mature form); Cloned in pET-28a; also called wild-type VEGF-D; mature VEGF-D; source: for SEC co-lysed with His-tagged VEGFR-3 cells and purified together on Ni-NTA
In the case of B3, the “MTT cell viability of MDA-MB-231 cells, 0-600 ng VEGF-D, 24 h; EC50” value in assay [3] stood at 238 ng. This molecule also had a Kd in assay [4] of 270 nM. Moreover, the “stoichiometry N” value in assay [5] was 1.

B4: GST-tagged VEGF-D (residues 89-205) I102A (ligand, human, UniProt O43915 89-205, looked up)
chain: B1 chain with I14A
notes: human VEGF-D, residues 89-205, I102A; Cloned in pGEX-4T-1
Consider B4, for which the binding result in assay [2] is listed as “binds”.

B5: His-tagged VEGF-D (residues 89-205) D103A/Q110A (ligand, human, UniProt O43915 89-205, looked up)
chain: B1 chain with D15A, Q22A
notes: human VEGF-D, residues 89-205, D103A and Q110A; also called D103A/Q110A mutant; double mutated form of VEGF-D; source: E. coli BL21 (DE3), purified
In assay [4], B5 gave a dissociation constant (Kd) of 530 nM.

B6: His-tagged VEGF-D (residues 89-205) D103A/Q110A (ligand, human, UniProt O43915 89-205, looked up)
chain: B1 chain with D15A, Q22A
notes: Vascular endothelial growth factor D (VEGF-D), human, residues 89-205, double mutant D103A/Q110A; same limits as Dm1 (see its note on the primers); source: E. coli BL21 (DE3), purified
In assay [1], B6 registered a Kd of 533 nM, a koff of 0.00103 s⁻¹ and an association rate constant (kon) of 1940 M⁻¹ s⁻¹.

B7: His-tagged VEGF-D (residues 89-205) I102A/E105A (ligand, human, UniProt O43915 89-205, looked up)
chain: B1 chain with I14A, E17A
notes: human VEGF-D, residues 89-205, I102A and E105A; also called double mutated form of VEGF-D; source: E. coli BL21 (DE3), purified
In assay [4], B7 had a Kd of 960 nM.

B8: His-tagged VEGF-D (residues 89-205) I102A/E105A (ligand, human, UniProt O43915 89-205, looked up)
chain: B1 chain with I14A, E17A
notes: Vascular endothelial growth factor D (VEGF-D), human, residues 89-205, double mutant I102A/E105A; same limits as Dm1 (see its note on the primers); source: E. coli BL21 (DE3), purified
Turning to B8, in assay [1], the Kd was found to be 956 nM, the koff stood at 0.0015 s⁻¹ and the kon was 1570 M⁻¹ s⁻¹.

For the origin of these results see PMC11729338, “Molecular Characterization and Interaction between Human VEGF-D and VEGFR-3” (Journal of Microbiology and Biotechnology, 2024).
